The data set has as its target MdWRKY17 (Malus x domestica, UniProt A0A9E6GT21 1-512). The data set can be described thus: EMSA; Chemiluminescent EMSA Kit (Beyotime); buffer, salt, pH and temperature not stated. The conditions noted are these: protein: recombinant; tags: His (pET32a); label: biotin; blunt.

Sequence of MdWRKY17 (A0A9E6GT21 entry or part of it): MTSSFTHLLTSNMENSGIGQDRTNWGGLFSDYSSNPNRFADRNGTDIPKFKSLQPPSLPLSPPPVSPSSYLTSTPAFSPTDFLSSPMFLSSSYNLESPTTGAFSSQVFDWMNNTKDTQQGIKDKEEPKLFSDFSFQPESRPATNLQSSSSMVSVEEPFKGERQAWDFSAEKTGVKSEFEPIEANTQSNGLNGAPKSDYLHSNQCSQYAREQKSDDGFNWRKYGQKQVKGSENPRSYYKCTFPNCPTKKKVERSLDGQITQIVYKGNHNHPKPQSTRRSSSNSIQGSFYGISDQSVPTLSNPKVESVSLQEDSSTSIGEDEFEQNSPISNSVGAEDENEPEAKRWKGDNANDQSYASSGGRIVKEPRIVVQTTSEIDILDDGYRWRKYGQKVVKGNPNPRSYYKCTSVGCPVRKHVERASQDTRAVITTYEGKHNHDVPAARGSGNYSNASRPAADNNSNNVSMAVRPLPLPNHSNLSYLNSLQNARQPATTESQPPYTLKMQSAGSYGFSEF

B1: MdPL-like-P1 probe (dsDNA)
DNA 1: AGGAGTACCTTTGGTCAAACTATATTCAAA
DNA 2: TTTGAATATAGTTTGACCAAAGGTACTCCT
For the molecule B1, the binding result is “binds”.

B2: MdDMR6 probe (dsDNA)
DNA 1: ATATTGTTTTCTGCATTTTTGACTTAATTTTTATAAATTAA
DNA 2: TTAATTTATAAAAATTAAGTCAAAAATGCAGAAAACAATAT
For B2, the binding result is “binds”.

B3: MdPL-like-P2 probe (dsDNA)
DNA 1: AAGTCAACTAAAAAAGTCAACGTCTGACCGTTGACTGGTCAAAG
DNA 2: CTTTGACCAGTCAACGGTCAGACGTTGACTTTTTTAGTTGACTT
Regarding B3, the binding result was “binds”.

B4: MdPL-like-P3 probe (dsDNA)
DNA 1: AGTTGACCATTGACCGTTGACTGAGTCAACAGTCAAGGTCAACT
DNA 2: AGTTGACCTTGACTGTTGACTCAGTCAACGGTCAATGGTCAACT
Consider B4, for which the binding result is given as “binds”.
